Conditions in all cases: protein: ivt; tags: N-terminal FLAG; label: 5'-biotin
Data set [1] concerns the target T1, hTERT Q169D (Homo sapiens, UniProt O14746 1-1132, Q169D). Briefly: pull-down; 5'-biotin primers with RRL-made 35S-hTERT (no hTR), neutravidin bead pull-down; primer mix pre-incubated on ice 45-60 min; buffer, salt and pH not given (ref 28).
Data set [2] has as its target T2, hTERT Q169N (Homo sapiens, UniProt O14746 1-1132, Q169N). The description is as above.
Data set [3] concerns the target hTERT WT (Homo sapiens, UniProt O14746 1-1132). The description is as above.
The target in data set [4] is T3, hTERT Q169A (Homo sapiens, UniProt O14746 1-1132, Q169A). The data set is described as above.
Data set [5] deals with T1, hTERT Q169D. The data set can be described thus: pull-down; stronger than WT; 5'-biotin primers with RRL-made 35S-hTERT (no hTR), neutravidin bead pull-down; primer mix pre-incubated on ice 45-60 min; buffer, salt and pH not given (ref 28).
In data set [6] the target is T2, hTERT Q169N. The description is as above.
For data set [7], the target named is T3, hTERT Q169A. The description is as above.

T1 sequence (O14746 whole entry Q169D): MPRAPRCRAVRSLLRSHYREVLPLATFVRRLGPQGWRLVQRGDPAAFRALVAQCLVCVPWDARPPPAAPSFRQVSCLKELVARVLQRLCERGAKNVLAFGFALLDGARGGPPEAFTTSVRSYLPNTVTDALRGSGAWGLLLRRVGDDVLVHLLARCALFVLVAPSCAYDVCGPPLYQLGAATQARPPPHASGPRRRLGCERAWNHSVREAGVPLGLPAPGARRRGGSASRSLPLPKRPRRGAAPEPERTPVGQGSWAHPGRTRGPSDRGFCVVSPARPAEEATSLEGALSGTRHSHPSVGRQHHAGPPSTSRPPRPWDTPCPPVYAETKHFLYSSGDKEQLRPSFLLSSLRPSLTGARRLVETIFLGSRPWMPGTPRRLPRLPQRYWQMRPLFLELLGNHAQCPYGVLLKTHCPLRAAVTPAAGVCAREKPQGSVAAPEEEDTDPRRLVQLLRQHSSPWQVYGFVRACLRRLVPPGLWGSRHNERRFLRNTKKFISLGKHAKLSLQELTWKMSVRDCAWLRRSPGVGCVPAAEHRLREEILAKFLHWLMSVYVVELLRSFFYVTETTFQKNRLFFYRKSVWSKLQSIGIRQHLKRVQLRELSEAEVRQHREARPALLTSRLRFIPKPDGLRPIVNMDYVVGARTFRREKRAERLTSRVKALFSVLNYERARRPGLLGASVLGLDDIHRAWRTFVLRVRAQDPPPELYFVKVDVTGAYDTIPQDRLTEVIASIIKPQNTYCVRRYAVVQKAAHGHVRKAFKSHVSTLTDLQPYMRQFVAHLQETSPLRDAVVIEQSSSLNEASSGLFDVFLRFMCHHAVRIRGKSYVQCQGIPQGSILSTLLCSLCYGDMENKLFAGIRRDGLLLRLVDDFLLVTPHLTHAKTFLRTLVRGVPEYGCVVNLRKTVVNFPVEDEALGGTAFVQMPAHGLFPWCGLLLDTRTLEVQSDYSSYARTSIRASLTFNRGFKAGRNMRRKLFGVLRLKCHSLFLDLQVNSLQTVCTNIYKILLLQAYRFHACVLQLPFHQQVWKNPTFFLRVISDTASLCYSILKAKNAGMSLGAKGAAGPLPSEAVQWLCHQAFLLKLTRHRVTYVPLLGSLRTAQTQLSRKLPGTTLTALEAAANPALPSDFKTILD
T3 sequence (O14746 whole entry Q169A): as the sequence (O14746 whole entry Q169D) above, with D169A counted along it
T2 sequence (O14746 whole entry Q169N): as the sequence (O14746 whole entry Q169D) above, with D169N counted along it
Chain of hTERT WT (O14746 whole entry): as the sequence (O14746 whole entry Q169D) above, with D169Q counted along it

TTGGGGTTGGGGTTGGGG (ssDNA) [bio-Tetrahymena]: the binding result in data set [1], in data set [2], in data set [3] and in data set [4] was “binds” each time.
Regarding TTAGGG (ssDNA) [bio-TELO6], the binding result in data set [5], in data set [6] and in data set [7] was “binds” each time.
Take TTAGGGTTAGGGTTAGGGTTAGGG (ssDNA) [bio-TELO24]: in data set [7], the binding result is given as “binds”.
As for TTAGGGTTAGGG (ssDNA) [bio-TELO12], the binding result in data set [5], in data set [6] and in data set [7] was “binds” each time.

The record behind these values is paper PMC2744565, “Human Telomerase Reverse Transcriptase (hTERT) Q169 Is Essential for Telomerase Function In Vitro and In Vivo”.
